# Reference: IntAct's records for PubMed 21746902
# B1: Epsin-3 (Saccharomyces cerevisiae), P47160 (parent)
# chain: MSLEDTLANMSLYDAKKYFRKAQNVVFNYTEMEGKVREATNNEPWGASSTLMDQISQGTYNFREREEILSMIFRRFTEKAGSEWRQIYKALQLLDYLIKHGSERFIDDTRNSINLIRILETFHYIDSQGRDQGINVRTRVKALIELLSDDNKIRAERKKARETAKKYKGVAGGSASADGSLNSKAGFTSTKVHGISVSADFDSDNEDNEDGSFSQNGYNDNASRATSTPGQGKQEPEDFVDFFSSESSKPSKELIQEDEKKADEEEDDDDEFSEFQSAVPVTNPANSFNLLNTSPIEGMPATTSSMPFYNSSTTDQGKITPAIAEPKKVDPFSSLFSTAKASAEAPSAPKASQAKAAASNPVSNSTTALSTDQDDDDEFGEMHGGAVQQEQNTNNNHTSSKEIDLLSF
# B2: t-SNARE VTI1 (Saccharomyces cerevisiae), Q04338 (parent)
# chain: MSSLLISYESDFKTTLEQAKASLAEAPSQPLSQRNTTLKHVEQQQDELFDLLDQMDVEVNNSIGDASERATYKAKLREWKKTIQSDIKRPLQSLVDSGDRDRLFGDLNASNIDDDQRQQLLSNHAILQKSGDRLKDASRIANETEGIGSQIMMDLRSQRETLENARQTLFQADSYVDKSIKTLKTMTRRLVANKFISYAIIAVLILLILLVLFSKFK
# partner: B1 chain
# Variants of: B1
# Details: with vti1_yeast VTI1, Q04338
row,Variant,effect of a mutation on the interaction
1,MSLEDTLANMSLYDAKKYFRKAQNVVFNYTEMEGKVREATNNEPWGASSTLMDQISQGTYNFREREEILSMIFRRFTEKAGSEWRQIYKALQLLDYLIKHGSERFIDDTRNSINLIRILETFHYIDSQGRDQGINVRTRVKALIELLSDDNKIRAEEKKARETAKKYKGVAGGSASADGSLNSKAGFTSTKVHGISVSADFDSDNEDNEDGSFSQNGYNDNASRATSTPGQGKQEPEDFVDFFSSESSKPSKELIQEDEKKADEEEDDDDEFSEFQSAVPVTNPANSFNLLNTSPIEGMPATTSSMPFYNSSTTDQGKITPAIAEPKKVDPFSSLFSTAKASAEAPSAPKASQAKAAASNPVSNSTTALSTDQDDDDEFGEMHGGAVQQEQNTNNNHTSSKEIDLLSF [R157E],disrupting interaction strength
2,MSLEDTLANMSLYDAKKYFRKAQNVVFNYTEMEGKVREATNNEPWGASSTLMDQISQGTYNFREREEILSMIFRRFTEKAGSEWRQIYKALQLLDYLIKHGSERFIDDTRNSINLIRILETFHYIDSQGRDQGINVRTRVKALIELLSDDNKIRAERKKAEETAKKYKGVAGGSASADGSLNSKAGFTSTKVHGISVSADFDSDNEDNEDGSFSQNGYNDNASRATSTPGQGKQEPEDFVDFFSSESSKPSKELIQEDEKKADEEEDDDDEFSEFQSAVPVTNPANSFNLLNTSPIEGMPATTSSMPFYNSSTTDQGKITPAIAEPKKVDPFSSLFSTAKASAEAPSAPKASQAKAAASNPVSNSTTALSTDQDDDDEFGEMHGGAVQQEQNTNNNHTSSKEIDLLSF [R161E],disrupting interaction strength

# Variants of: B2
# Details: with ent3_yeast ENT3, P47160
row,Variant,effect of a mutation on the interaction
1,MSSLLISYESDFKTTLEQAKASLAEAPSQPLSQRNTTLKHVEQQQRELFDLLDQMDVEVNNSIGDASERATYKAKLREWKKTIQSDIKRPLQSLVDSGDRDRLFGDLNASNIDDDQRQQLLSNHAILQKSGDRLKDASRIANETEGIGSQIMMDLRSQRETLENARQTLFQADSYVDKSIKTLKTMTRRLVANKFISYAIIAVLILLILLVLFSKFK [D46R],disrupting interaction strength
2,MSSLLISYESDFKTTLEQAKASLAEAPSQPLSQRNTTLKHVRQQQDELFDLLDQMDVEVNNSIGDASERATYKAKLREWKKTIQSDIKRPLQSLVDSGDRDRLFGDLNASNIDDDQRQQLLSNHAILQKSGDRLKDASRIANETEGIGSQIMMDLRSQRETLENARQTLFQADSYVDKSIKTLKTMTRRLVANKFISYAIIAVLILLILLVLFSKFK [E42R],disrupting interaction strength
3,MSSLLISYESDFKTTLEQAKASLAEAPSQPLSQRNTTLKHVEQQQDELFDLLDQMDVEVNNSIGDASERATYKAKLREWKKTIQSDIKRPLQSLVRSGDRDRLFGDLNASNIDDDQRQQLLSNHAILQKSGDRLKDASRIANETEGIGSQIMMDLRSQRETLENARQTLFQADSYVDKSIKTLKTMTRRLVANKFISYAIIAVLILLILLVLFSKFK [D96R],disrupting interaction strength
